Legend:
CD47 [1] = molecular target: T1, CD47 (human, UniProt Q08722 19-323); test: flow cytometry on CD47-transfected CHO cells
T1 construct: whole, on cells; Human by the cells used (blood of human donors; human Ramos, A549, BT474, Raji, Namalwa cells); also called human CD47

HER2 = molecular target: T2, HER2 (human, UniProt P04626 23-1255); test: flow cytometry on BT474 cells
T2 construct: whole, on cells; The cells carry CD47 as well
Protocol: After washing with PBS+1% FBS, cells were incubated with FITC F(ab′)2 goat Anti-Human IgG, Fcγ (Jackson ImmunoResearch, West Grove, Pa.), diluted 1:200 in PBS+1% FBS for 60 min on ice. After washing again, cells were fixed with 1% formaldehyde in PBS. Cells were analyzed by flow cytometry (MACSQuant, Miltenyi Biotec, Cologne, Germany).

CD47 [2] = molecular target: T1, CD47; test: flow cytometry on CD47-low human Ramos cells
Protocol: (§1) After washing again, cells were fixed with 1% formaldehyde in PBS. Cells were analyzed by flow cytometry (MACSQuant, Miltenyi Biotec, Cologne, Germany).

CD47 [3] = molecular target: T1, CD47; test: flow cytometry on CD47-high (CD47-transfected) CHO cells
Protocol: as §1

B1: Fcab(HER2) (other)
chain: EPKSSDKTHTCPPCPAPELLGGPSVFLFPPKPKDTLMISRTPEVTCVVVDVSHEDPEVKFNWYVDGVEVHNAKTKPREEQYNSTYRVVSVLTVLHQDWLNGKEYKCKVSNKALPAPIEKTISKAKGQPREPQVYTLPPSRDEYLYGDVSLTCLVKGFYPSDIAVEWESNGQPENNYKTTPPVLDSDGSFFLYSKLTVPRHSARMWRWAHGNVFSCSVMHEALHNHYTQKSLSLSPGK
notes: also called anti-HER2 Fcab H10-03-6
CD47 [1]
  binding result: no binding
HER2
  binding result: binds

B2: anti-CD20 huIgG1 (antibody, V domains shown)
VH: QVQLQQPGAELVKPGASVKMSCKASGYTFTSYNMHWVKQTPGRGLEWIGAIYPGNGDTSYNQKFKGKATLTADKSSSTAYMQLSSLTSEDSAVYYCARSTYYGGDWYFNVWGAGTTVTVSA
VL: QIVLSQSPAILSASPGEKVTMTCRASSSVSYIHWFQQKPGSSPKPWIYATSNLASGVPVRFSGSGSGTSYSLTISRVEAEDAATYYCQQWTSNPPTFGGGTKLEIKR
notes: Control in standard monoclonal antibody format, huIgG1, based on 2B8 (rituximab); not shown: rest of the human IgG1 heavy chain
CD47 [1]
  binding result: no binding

B3: chimeric antibody B6H12/huIgG1 (antibody, V domains shown)
VH: EVQLQESGGDLVKPGGSLKLSCAASGFTFSGYGMSWVRQTPDKRLEWVATITSGGTYTYYPDSVKGRFTISRDNAKNTLYLQIDSLKSEDTAIYFCARSLAGNAMDYWGQGTTVTVSS
VL: DIVITQSPATLSVTPGDRVSLSCRASQTISDYLHWYQQKSHESPRLLIKFASQSISGIPSRFSGSGSGSDFTLSINSVEPEDVGVYYCQNGHGFPRTFGGGTKLEIKR
notes: also called anti-CD47; anti-CD47 huIgG1
CD47 [2]
  EC50: 6 nM
CD47 [3]
  EC50: 7 nM

From patent US20160177276A1 (Merck KGaA, published 2016)
